Earlier results on one substance are cited in PMC12405408.

This data set has as its target CaSR (Homo sapiens) (UniProt P41180).
Chain of UniProt P41180 (P41180 20-1078): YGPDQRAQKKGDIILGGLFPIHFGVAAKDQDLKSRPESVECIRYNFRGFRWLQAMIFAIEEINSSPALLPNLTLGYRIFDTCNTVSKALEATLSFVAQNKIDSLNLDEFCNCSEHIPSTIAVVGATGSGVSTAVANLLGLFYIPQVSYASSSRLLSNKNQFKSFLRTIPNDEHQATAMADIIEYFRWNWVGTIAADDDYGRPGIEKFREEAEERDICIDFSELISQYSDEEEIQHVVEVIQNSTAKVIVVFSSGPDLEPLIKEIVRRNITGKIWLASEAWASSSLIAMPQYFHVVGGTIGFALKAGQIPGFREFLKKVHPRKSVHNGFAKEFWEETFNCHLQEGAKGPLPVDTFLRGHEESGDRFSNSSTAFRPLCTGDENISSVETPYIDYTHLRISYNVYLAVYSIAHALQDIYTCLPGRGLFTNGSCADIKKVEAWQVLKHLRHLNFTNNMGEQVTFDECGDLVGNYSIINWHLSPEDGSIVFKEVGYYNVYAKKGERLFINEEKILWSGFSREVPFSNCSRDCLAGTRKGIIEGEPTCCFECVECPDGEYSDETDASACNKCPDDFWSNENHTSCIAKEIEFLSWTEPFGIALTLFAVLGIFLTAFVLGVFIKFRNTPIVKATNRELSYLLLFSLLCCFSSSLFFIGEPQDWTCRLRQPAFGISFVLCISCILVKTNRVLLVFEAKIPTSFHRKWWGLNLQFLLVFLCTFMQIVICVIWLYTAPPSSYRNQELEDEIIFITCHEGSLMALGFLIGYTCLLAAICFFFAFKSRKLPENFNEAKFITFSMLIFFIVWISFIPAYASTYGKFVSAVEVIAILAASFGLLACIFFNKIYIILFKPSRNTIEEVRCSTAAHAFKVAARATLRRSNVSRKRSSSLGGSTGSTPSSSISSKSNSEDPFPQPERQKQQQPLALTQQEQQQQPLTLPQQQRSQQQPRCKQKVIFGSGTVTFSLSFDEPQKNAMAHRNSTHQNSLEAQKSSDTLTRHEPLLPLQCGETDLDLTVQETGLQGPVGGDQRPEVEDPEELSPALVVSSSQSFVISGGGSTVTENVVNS

On to EWVPVTK peptide, for which the Kd is 3.2 nM.
